Publication PMC2892170 (Biochemistry, 2009)

Molecular target: the molecule itself
Experiment: SEC

B1: Enterococcus faecalis phosphopantothenoylcysteine synthetase (enzyme, UniProt A0ACD6TE34 1-257, looked up)
chain: MDVLVTAGGTSEPIDNVRSITNHSSGGLGKAIAESFLAAGHTVTYVTTKHALRPTQQLDLSIKEIETTVELATTLEQLFAEKQFDAIVHAMAVSDFTTEAAQTEEQFIDSFTQQLSEQTLPKTKEALATIVQNTLNQIADIPQTATKISSDTDRLLIFLKKNPKVIQMIRDKQPQTVLVGFKLLVDVSQEELVQVAQAALVKNRCDFVLANDLMNVHETEHEGLLINETGIVQEACSKQGIGSMIVKNVEKKWREQQ
- stoichiometry N: 2
